In article PMC2572630 one finds percent decrease in association against wild-type c-Myb data, which are given here for three substances.

For the assay, the target named is Flag-tagged mR3-3 c-Myb (chicken) (UniProt P01103). Nature of the assay: protein chromatin immunoprecipitation (PChIP); 293T cells fixed with 1% formaldehyde, lysate sonicated to chromatin fragments of 100-300 bp, anti-Flag M2 agarose, washes up to 500 mM NaCl and 500 mM LiCl, histones detected by western blot. (In general: A western blot detects proteins with antibodies after separation by electrophoresis.)
UniProt P01103, sequence (P01103 other isoform, or with tags, fused parts or gaps): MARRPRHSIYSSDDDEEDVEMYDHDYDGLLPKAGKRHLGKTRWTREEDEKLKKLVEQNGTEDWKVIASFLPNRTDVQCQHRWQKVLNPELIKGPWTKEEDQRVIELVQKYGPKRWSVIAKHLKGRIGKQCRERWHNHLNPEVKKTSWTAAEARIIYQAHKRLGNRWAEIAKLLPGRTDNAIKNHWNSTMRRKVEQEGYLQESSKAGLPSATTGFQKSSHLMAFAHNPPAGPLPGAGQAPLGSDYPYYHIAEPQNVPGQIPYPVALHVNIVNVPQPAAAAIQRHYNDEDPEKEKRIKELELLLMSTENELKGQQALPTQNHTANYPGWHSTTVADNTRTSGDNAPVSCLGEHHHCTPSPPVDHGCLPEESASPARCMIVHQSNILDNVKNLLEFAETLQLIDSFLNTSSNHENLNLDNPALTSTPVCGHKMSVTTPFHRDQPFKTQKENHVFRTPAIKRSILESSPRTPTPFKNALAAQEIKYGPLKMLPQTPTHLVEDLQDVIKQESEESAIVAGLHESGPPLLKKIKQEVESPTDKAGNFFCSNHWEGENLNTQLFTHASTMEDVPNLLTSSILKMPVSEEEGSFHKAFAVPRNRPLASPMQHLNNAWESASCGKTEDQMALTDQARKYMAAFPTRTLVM

Substance “histone H2A (from UniProt P0C0S8 1-130) (natural protein)” showed a percent decrease in association against wild-type c-Myb of 50%. With “histone H3 (from UniProt P68431 1-136) (natural protein)” the figure was 50%. “histone H4 (from UniProt P62805 1-103) (natural protein)” displayed a percent decrease in association against wild-type c-Myb of 50%.
